Laboratory results from article PMC3958255 (Sensors (Basel, Switzerland), 2014).

Assays:
[1] = target: T1, Jun-Lc (bJun fused upstream of mLumin (151-233)) (UniProt P05412 257-318); assay: split reporter (BiFC, NanoBiT); mLumin-based BiFC from the bicistronic vector pBudCE4.1 (BEVL-BiFC) in living COS-7 cells; 100 ng vector (also 300 ng) with 30 ng pmCerulean-C1 as internal control; imaged 16 h after cotransfection; BiFC efficiency = fluorescence intensity ratio of mLumin to mCerulean; conditions: partners not purified
T1 construct: primers are in the Supporting Information; also called bJun-Lc; source: COS-7, transfected (pBudCE4.1 bicistronic vector), in living cells; not shown: mLumin (151-233) (Lc), C-terminal, kept
T1 sequence (P05412 257-318): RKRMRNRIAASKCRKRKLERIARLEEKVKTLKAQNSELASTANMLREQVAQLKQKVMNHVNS

[2] = target: T2, Lc-Jun (bJun fused downstream of mLumin (151-233)) (UniProt P05412 257-318); assay: as above; conditions: partners not purified
T2 construct: primers are in the Supporting Information; also called Lc-bJun; source: COS-7, transfected (pBudCE4.1 bicistronic vector), in living cells; not shown: mLumin (151-233) (Lc), N-terminal, kept
T2 sequence (P05412 257-318): as above

fold contrast in BiFC efficiency over ΔFos/Jun [1]: ~25 fold
fold contrast in BiFC efficiency over ΔFos/Jun [2]: ~25 fold
B1: Ln-Fos (bFos fused downstream of mLumin (1-151)) (domain or fragment, UniProt P01100 118-210, looked up)
chain: GRAQSIGRRGKVEQLSPEEEEKRRIRRERNKMAAAKCRNRRRELTDTLQAETDQLEDEKSALQTEIANLLKEKEKLEFILAAHRPACKIPDDL
notes: primers are in the Supporting Information; also called Ln-bFos; source: COS-7, transfected (pBudCE4.1 bicistronic vector), in living cells; not shown: mLumin (1-151) (Ln), N-terminal, kept
